Like-named read-outs stand apart in the source and are kept apart here. Side-chain parts run from the residue outwards. [ ]: non-standard residue; d: D form. N‑Me‑Lys‑pentyne = N-methyl-lysine carrying a pentyne (alkyne) group; Pro‑4‑NH‑hexyne = not defined here; dNMeF = CN[C@H](Cc1ccccc1)C(=O)O; NMeK = CN[C@@H](CCCCN)C(=O)O; Ahx = NCCCCCC(=O)O; BDPFL = dye
Assays:
Assay in all cases: competition
integrin αvβ6 [1] = biological target: T1, integrin αvβ6 (human, UniProt P06756)
T1 chain 1: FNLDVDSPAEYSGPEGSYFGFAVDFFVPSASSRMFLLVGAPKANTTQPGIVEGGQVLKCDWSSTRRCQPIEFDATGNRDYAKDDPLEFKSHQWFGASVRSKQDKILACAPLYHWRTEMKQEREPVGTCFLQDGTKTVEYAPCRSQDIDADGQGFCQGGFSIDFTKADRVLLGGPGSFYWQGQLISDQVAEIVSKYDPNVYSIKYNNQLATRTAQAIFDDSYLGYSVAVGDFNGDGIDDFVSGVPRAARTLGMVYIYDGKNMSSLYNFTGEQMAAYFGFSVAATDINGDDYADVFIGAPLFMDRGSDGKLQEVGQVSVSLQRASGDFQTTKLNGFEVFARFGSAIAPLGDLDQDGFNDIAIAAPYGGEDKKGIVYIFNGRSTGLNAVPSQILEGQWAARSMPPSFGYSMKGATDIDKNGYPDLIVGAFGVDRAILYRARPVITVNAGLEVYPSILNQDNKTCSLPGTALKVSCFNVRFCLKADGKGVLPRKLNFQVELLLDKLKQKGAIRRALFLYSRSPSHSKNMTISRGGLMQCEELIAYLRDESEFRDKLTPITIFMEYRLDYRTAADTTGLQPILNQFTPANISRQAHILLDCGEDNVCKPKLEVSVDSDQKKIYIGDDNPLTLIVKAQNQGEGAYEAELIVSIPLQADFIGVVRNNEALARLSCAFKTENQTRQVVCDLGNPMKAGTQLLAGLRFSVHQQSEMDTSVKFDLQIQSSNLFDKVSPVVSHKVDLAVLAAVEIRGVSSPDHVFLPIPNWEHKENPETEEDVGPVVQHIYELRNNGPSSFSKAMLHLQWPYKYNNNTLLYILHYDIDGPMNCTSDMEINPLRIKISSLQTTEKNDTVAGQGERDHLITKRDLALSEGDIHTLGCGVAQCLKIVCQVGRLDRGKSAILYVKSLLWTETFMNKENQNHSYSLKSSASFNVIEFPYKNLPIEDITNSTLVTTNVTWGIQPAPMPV
T1 chain 2: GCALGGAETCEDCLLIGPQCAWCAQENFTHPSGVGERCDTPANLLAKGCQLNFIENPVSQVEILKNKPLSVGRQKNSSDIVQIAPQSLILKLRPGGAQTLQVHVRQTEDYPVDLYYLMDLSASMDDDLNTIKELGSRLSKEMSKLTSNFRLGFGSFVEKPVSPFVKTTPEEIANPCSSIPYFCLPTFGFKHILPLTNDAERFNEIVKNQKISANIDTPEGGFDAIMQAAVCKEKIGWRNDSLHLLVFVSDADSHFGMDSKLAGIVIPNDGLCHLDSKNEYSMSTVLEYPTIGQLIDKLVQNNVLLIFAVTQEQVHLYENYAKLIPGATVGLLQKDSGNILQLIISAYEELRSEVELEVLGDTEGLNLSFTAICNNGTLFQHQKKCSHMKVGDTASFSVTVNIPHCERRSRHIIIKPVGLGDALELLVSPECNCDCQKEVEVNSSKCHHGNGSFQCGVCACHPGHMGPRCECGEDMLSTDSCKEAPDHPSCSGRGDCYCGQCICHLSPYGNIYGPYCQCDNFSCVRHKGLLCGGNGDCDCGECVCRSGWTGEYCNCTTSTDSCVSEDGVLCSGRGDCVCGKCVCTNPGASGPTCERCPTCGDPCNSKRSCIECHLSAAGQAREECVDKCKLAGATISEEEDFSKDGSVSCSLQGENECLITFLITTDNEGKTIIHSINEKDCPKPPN

integrin αvβ8 [2] = biological target: T2, integrin αvβ8 (human, UniProt P06756)
T2 chain 1: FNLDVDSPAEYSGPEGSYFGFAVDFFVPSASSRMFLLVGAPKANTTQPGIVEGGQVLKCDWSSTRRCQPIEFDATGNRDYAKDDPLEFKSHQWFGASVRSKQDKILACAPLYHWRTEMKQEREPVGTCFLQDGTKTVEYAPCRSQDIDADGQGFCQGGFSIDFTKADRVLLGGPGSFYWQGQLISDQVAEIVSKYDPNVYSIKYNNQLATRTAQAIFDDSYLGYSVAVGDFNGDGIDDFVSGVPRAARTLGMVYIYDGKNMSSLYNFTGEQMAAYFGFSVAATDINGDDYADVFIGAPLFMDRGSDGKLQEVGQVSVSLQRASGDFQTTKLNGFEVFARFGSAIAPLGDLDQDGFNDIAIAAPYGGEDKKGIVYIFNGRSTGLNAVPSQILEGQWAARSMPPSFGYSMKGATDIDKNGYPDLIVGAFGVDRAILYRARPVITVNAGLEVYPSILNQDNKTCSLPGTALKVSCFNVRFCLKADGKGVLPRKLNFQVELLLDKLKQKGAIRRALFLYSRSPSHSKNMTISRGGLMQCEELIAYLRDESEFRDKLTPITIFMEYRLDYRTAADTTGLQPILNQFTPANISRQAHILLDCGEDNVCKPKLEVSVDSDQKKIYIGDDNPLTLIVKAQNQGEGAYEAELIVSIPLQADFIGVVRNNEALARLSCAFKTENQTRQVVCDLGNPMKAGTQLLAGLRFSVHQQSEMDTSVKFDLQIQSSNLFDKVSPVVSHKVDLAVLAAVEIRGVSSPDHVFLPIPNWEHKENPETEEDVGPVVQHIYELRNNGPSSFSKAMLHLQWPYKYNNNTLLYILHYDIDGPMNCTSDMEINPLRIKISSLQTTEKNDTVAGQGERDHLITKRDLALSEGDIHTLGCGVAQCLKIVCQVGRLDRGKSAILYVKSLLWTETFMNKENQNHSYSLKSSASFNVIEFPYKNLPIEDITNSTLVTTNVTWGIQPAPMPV
T2 chain 2: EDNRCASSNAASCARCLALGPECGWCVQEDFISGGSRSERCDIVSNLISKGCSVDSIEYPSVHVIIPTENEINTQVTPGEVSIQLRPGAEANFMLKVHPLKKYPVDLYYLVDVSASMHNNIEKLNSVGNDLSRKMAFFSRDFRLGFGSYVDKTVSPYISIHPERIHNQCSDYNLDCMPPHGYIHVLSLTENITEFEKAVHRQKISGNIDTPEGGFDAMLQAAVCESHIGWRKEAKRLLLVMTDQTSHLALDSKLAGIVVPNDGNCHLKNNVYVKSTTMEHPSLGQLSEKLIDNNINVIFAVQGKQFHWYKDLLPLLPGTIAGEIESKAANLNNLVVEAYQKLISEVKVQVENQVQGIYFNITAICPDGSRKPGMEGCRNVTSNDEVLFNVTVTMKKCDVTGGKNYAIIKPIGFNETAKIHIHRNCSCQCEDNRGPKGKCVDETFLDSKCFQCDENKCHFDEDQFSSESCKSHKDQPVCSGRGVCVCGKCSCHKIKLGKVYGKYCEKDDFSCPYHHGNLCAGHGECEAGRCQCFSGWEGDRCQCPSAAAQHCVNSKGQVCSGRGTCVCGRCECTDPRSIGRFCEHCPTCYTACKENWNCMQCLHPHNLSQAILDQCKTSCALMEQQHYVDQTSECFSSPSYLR

integrin αvβ8 [3] = biological target: T2, integrin αvβ8
integrin αvβ6 [4] = biological target: T1, integrin αvβ6
integrin αvβ3 = biological target: T3, integrin αvβ3 (human, UniProt P06756)
T3 chain 1: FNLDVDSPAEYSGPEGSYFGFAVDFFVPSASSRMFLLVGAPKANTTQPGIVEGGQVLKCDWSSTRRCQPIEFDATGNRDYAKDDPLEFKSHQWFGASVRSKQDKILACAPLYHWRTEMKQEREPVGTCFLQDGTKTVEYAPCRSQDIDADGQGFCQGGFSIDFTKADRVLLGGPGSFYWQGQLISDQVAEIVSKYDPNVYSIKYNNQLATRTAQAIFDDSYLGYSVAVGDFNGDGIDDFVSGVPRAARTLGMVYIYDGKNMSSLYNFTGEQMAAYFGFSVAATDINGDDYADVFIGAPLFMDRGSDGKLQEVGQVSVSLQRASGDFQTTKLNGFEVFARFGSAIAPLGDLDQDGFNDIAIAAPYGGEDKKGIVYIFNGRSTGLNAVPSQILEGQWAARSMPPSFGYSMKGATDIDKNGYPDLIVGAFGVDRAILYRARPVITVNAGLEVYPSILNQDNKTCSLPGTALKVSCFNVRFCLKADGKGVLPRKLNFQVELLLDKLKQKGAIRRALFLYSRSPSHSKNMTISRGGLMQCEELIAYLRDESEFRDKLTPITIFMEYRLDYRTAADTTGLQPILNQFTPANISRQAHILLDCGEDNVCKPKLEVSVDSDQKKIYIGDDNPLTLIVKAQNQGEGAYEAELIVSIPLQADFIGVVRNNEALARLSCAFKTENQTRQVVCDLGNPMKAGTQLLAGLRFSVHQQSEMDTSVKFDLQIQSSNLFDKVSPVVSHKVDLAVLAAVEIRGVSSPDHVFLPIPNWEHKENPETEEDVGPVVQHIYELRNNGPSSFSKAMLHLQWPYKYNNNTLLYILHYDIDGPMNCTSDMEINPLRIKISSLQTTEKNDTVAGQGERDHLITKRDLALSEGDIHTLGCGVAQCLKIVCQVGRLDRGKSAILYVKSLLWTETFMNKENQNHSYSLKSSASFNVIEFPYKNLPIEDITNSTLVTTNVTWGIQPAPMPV
T3 chain 2: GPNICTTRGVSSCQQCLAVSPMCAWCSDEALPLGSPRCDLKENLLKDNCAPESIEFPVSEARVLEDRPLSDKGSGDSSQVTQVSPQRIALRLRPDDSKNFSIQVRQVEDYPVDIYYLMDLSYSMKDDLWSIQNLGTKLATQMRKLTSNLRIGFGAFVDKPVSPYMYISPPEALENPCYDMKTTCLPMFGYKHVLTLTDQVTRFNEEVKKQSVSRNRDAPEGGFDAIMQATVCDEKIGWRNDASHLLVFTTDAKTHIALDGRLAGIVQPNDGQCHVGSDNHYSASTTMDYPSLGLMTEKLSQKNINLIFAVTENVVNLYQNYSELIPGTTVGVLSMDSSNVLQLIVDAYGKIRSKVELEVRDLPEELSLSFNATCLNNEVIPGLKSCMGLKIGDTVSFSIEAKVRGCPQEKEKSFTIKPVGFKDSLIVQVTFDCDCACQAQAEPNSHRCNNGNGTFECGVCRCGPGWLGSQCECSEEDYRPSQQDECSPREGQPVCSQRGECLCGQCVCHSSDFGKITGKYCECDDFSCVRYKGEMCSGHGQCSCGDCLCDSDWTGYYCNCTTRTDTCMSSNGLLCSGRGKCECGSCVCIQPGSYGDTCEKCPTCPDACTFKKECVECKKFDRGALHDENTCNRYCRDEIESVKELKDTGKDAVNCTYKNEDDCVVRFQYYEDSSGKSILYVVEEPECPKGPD

Binder	IC50 (integrin αvβ6 [1]) [nM]	IC50 (integrin αvβ8 [2]) [nM]	IC50 (integrin αvβ8 [3]) [nM]	IC50 (integrin αvβ6 [4]) [nM]	IC50 (integrin αvβ3) [nM]
cyclo(RGDL[dP][N‑Me‑Lys‑pentyne]GL) [Compound 11 (Table 1)]	41	1.7			
cyclo(RGDL[dNMeF]PAL) (SMILES CC(C)C[C@@H]1NC(=O)[C@H](C)NC(=O)[C@@H]2CCCN2C(=O)[C@@H](Cc2ccccc2)N(C)C(=O)[C@H](CC(C)C)NC(=O)[C@H](CC(=O)O)NC(=O)CNC(=O)[C@H](CCCNC(=N)N)NC1=O) [Compound 6]	139	9.4			
cyclo(RGDL[dP]PSL) (SMILES CC(C)C[C@@H]1NC(=O)[C@H](CO)NC(=O)[C@@H]2CCCN2C(=O)[C@H]2CCCN2C(=O)[C@H](CC(C)C)NC(=O)[C@H](CC(=O)O)NC(=O)CNC(=O)[C@H](CCCNC(=N)N)NC1=O) [Compound 3]	187	12.5			
cyclo(RGDL[dP]PAL) (SMILES CC(C)C[C@@H]1NC(=O)[C@H](C)NC(=O)[C@@H]2CCCN2C(=O)[C@H]2CCCN2C(=O)[C@H](CC(C)C)NC(=O)[C@H](CC(=O)O)NC(=O)CNC(=O)[C@H](CCCNC(=N)N)NC1=O) [Compound 7]	32	1.31			
cyclo(RGD[dF]K) (also: Ahx-BDPFL conjugate, attachment site not given here) [Compound 13 (Table 3) c(RGDfK)-Ahx-BDPFL]			258	7.8	2.55
cyclo(RGDL[dP]PAH) (SMILES CC(C)C[C@@H]1NC(=O)[C@H](CC(=O)O)NC(=O)CNC(=O)[C@H](CCCNC(=N)N)NC(=O)[C@H](Cc2c[nH]cn2)NC(=O)[C@H](C)NC(=O)[C@@H]2CCCN2C(=O)[C@H]2CCCN2C1=O) [Compound 5]	171	2.2			
cyclo(RGDL[dP]PAY) (SMILES CC(C)C[C@@H]1NC(=O)[C@H](CC(=O)O)NC(=O)CNC(=O)[C@H](CCCNC(=N)N)NC(=O)[C@H](Cc2ccc(O)cc2)NC(=O)[C@H](C)NC(=O)[C@@H]2CCCN2C(=O)[C@H]2CCCN2C1=O) [Compound 4]	156	1.1			
cyclo(RGDL[dP]PAA) (SMILES CC(C)C[C@@H]1NC(=O)[C@H](CC(=O)O)NC(=O)CNC(=O)[C@H](CCCNC(=N)N)NC(=O)[C@H](C)NC(=O)[C@H](C)NC(=O)[C@@H]2CCCN2C(=O)[C@H]2CCCN2C1=O) [Compound 10 (Table 1)]	114	8.1			
cyclo(GLRVDL[dP][NMeK]([Ahx-BDPFL])) [Compound 11 (Table 3) c(GLRVDLp(NMe)K)-Ahx-BDPFL]			1120	> 10000	> 10000
cyclo(RGDL[dP][Pro‑4‑NH‑hexyne]GL) (reading uncertain) [Compound 12 (Table 1)]	217	8.8			
cyclo(RGDL[dP]PAL) (SMILES CC(C)C[C@@H]1NC(=O)[C@H](C)NC(=O)[C@@H]2CCCN2C(=O)[C@H]2CCCN2C(=O)[C@H](CC(C)C)NC(=O)[C@H](CC(=O)O)NC(=O)CNC(=O)[C@H](CCCNC(=N)N)NC1=O) [Compound 1]	84	1.4			
cyclo(RGDL[dP][NMeK]([Ahx-Ahx-BDPFL])GL) [Compound 9c (9-Ahx-Ahx-BDPFL)]			1.52	64	500
cyclo(RGDL[dP]PAF) [Compound 13 (Table 1)]	81	1.83			
